Assay results reported in the supplement of paper PMC5998384.

Tests used:
[1] = tested on: HeLa Kyoto; assay: solubility in G1/S (NP-40 vs SDS abundance) (log2 ratio); higher = more soluble; conditions: cell cycle stage: G1/S
[2] = tested on: HeLa Kyoto; assay: solubility change mitosis vs G1/S (difference of NP-40 vs SDS log2 ratios) (log2 ratio difference); higher = more soluble in mitosis
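Wherever solubility change mitosis vs G1/S (difference of NP-40 vs SDS log2 ratios) is given: synchronized HeLa Kyoto cells (double thymidine block for G1/S, nocodazole release for mitosis), protein amounts in NP-40 versus SDS lysates quantified by mass spectrometry, three biological replicates.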
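Wherever solubility in G1/S (NP-40 vs SDS abundance) is given: HeLa Kyoto cells arrested at G1/S by double thymidine block, proteins quantified by TMT10plex mass spectrometry in mild NP-40 versus SDS extracts, three biological replicates.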

Sequence | solubility in G1/S (log2) [1] | solubility change mitosis (log2) [2]
MLRTAMGLRSWLAAPWGALPPRPPLLLLLLLLLLLQPPPPTWALSPRISLPLGSEERPFLRFEAEHISNYTALLLSRDGRTLYVGAREALFALSSNLSFLPGGEYQELLWGADAEKKQQCSFKGKDPQRDCQNYIKILLPLSGSHLFTCGTAAFSPMCTYINMENFTLARDEKGNVLLEDGKGRCPFDPNFKSTALVVDGELYTGTVSSFQGNDPAISRSQSLRPTKTESSLNWLQDPAFVASAYIPESLGSLQGDDDKIYFFFSETGQEFEFFENTIVSRIARICKGDEGGERVLQQRWTSFLKAQLLCSRPDDGFPFNVLQDVFTLSPSPQDWRDTLFYGVFTSQWHRGTTEGSAVCVFTMKDVQRVFSGLYKEVNRETQQWYTVTHPVPTPRPGACITNSARERKINSSLQLPDRVLNFLKDHFLMDGQVRSRMLLLQPQARYQRVAVHRVPGLHHTYDVLFLGTGDGRLHKAVSVGPRVHIIEELQIFSSGQPVQNLLLDTHRGLLYAASHSGVVQVPMANCSLYRSCGDCLLARDPYCAWSGSSCKHVSLYQPQLATRPWIQDIEGASAKDLCSASSVVSPSFVPTGEKPCEQVQFQPNTVNTLACPLLSNLATRLWLRNGAPVNASASCHVLPTGDLLLVGTQQLGEFQCWSLEEGFQQLVASYCPEVVEDGVADQTDEGGSVPVIISTSRVSAPAGGKASWGADRSYWKEFLVMCTLFVLAVLLPVLFLLYRHRNSMKVFLKQGECASVHPKTCPVVLPPETRPLNGLGPPSTPLDHRGYQSLSDSPPGSRVFTESEKRPLSIQDSFVEVSPVCPRPRVRLGSEIRDSVV [SEMA4B] | 0.234 | -0.0944
MLTEASLSIWGWGSLGIVLFLITFGPFVIFYLTFYILCFVGGGLVVTLLFGKTNSEKYLEQCEHSFLPPTSPGVPKCLEEMKREARTIKIDRRLTGANIIDEPLQQVIQFSLRDYVQYWYYTLSDDESFLLEIRQTLQNALIQFATRSKEIDWQPYFTTRIVDDFGTHLRVFRKAQQKITEKDDQVKGTAEDLVDTFFEVEVEMEKEVCRDLVCTSPKDEEGFLRDLCEVLLYLLLPPGDFQNKIMRYFVREILARGILLPLINQLSDPDYINQYVIWMIRDSNCNYEAFMNIIKLSDNIGELEAVRDKAAEELQYLRSLDTAGDDINTIKNQINSLLFVKKVCDSRIQRLQSGKEINTVKLAANFGKLCTVPLDSILVDNVALQFFMDYMQQTGGQAHLFFWMTVEGYRVTAQQQLEVLLSRQRDGKHQTNQTKGLLRAAAVGIYEQYLSEKASPRVTVDDYLVAKLADTLNHEDPTPEIFDDIQRKVYELMLRDERFYPSFRQNALYVRMLAELDMLKDPSFRGSDDGDGESFNGSPTGSINLSLDDLSNVSSDDSVQLHAYISDTVYADYDPYAVAGVCNDHGKTYALYAITVHRRNLNSEEMWKTYRRYSDFHDFHMRITEQFESLSSILKLPGKKTFNNMDRDFLEKRKKDLNAYLQLLLAPEMMKASPALAHYVYDFLENKAYSKGKGDFARKMDTFVNPLRNSMRNVSNAVKSLPDSLAEGMTKMSDNMGKMSERLGQDIKQSFFKVPPLIPKTDSDPEHRRVSAQLDDNVDDNIPLRVMLLLMDEVFDLKERNQWLRRNIKNLLQQLIRATYGDTINRKIVDHVDWMTSPEQVADSVKRFRDAFWPNGILAEAVPCRDKSIRMRTRVAGKTKLLAIMPDELKHIIGAETTRKGILRVFEMFQHNQLNRRMVYVFLEGFLETLFPQYKFRELFNKLHSRSKQMQKYKQKLQTTQAPSLQKR [SNX13] | -0.221 | -0.0268
MLWLALGPFPAMENQVLVIRIKIPNSGAVDWTVHSGPQLLFRDVLDVIGQVLPEATTTAFEYEDEDGDRITVRSDEEMKAMLSYYYSTVMEQQVNGQLIEPLQIFPRACKPPGERNIHGLKVNTRAGPSQHSSPAVSDSLPSNSLKKSSAELKKILANGQMNEQDIRYRDTLGHGNGGTVYKAYHVPSGKILAVKVILLDITLELQKQIMSELEILYKCDSSYIIGFYGAFFVENRISICTEFMDGGSLDVYRKMPEHVLGRIAVAVVKGLTYLWSLKILHRDVKPSNMLVNTRGQVKLCDFGVSTQLVNSIAKTYVGTNAYMAPERISGEQYGIHSDVWSLGISFMELALGRFPYPQIQKNQGSLMPLQLLQCIVDEDSPVLPVGEFSEPFVHFITQCMRKQPKERPAPEELMGHPFIVQFNDGNAAVVSMWVCRALEERRSQQGPP [MAP2K5] | 0.128 | -0.109
MMKKKKFKFKVDFELEELSSVPFVNGVLFCKMRLLDGGSFTAESSREVVQANCVRWRKKFSFMCKMSASAATGILDPCIYRVSVRKELKGGKAYAKLGFADLNLAEFAGSGNTTRRCLLEGYDTKNTRQDNSILKVLISMQLMSGDPCFKTPPSTSMSIPIAGESESLQEDRKGGETLKVHLGIADLSAKSASVPDELGACGHSRTSSYASQQSKVSGYSTCHSRSSSFSELCHRRNTSVGSTSTGVESILEPCDEIEQKIAEPNLDTADKEDTASEKLSRCPVKQDSVESQLKRVDDTRVDADDIVEKILQSQDFSLDSSAEEEGLRLFVGPGGSTTFGSHHLPNRVGSGAYEQVVIKR [FAM102B] | -0.233 | 0.0662
MMWRPSVLLLLLLLRHGAQGKPSPDAGPHGQGRVHQAAPLSDAPHDDAHGNFQYDHEAFLGREVAKEFDQLTPEESQARLGRIVDRMDRAGDGDGWVSLAELRAWIAHTQQRHIRDSVSAAWDTYDTDRDGRVGWEELRNATYGHYAPGEEFHDVEDAETYKKMLARDERRFRVADQDGDSMATREELTAFLHPEEFPHMRDIVIAETLEDLDRNKDGYVQVEEYIADLYSAEPGEEEPAWVQTERQQFRDFRDLNKDGHLDGSEVGHWVLPPAQDQPLVEANHLLHESDTDKDGRLSKAEILGNWNMFVGSQATNYGEDLTRHHDEL [RCN3] | 0.0765 | 0.262
MNDISQKAEILLSSSKPVPKTYVPKLGKGDVKDKFEAMQRAREERNQRRSRDEKQRRKEQYIREREWNRRKQEIKEMLASDDEEDVSSKVEKAYVPKLTGTVKGRFAEMEKQRQEEQRKRTEEERKRRIEQDMLEKRKIQRELAKRAEQIEDINNTGTESASEEGDDSLLITVVPVKSYKTSGKMKKNFEDLEKEREEKERIKYEEDKRIRYEEQRPSLKEAKCLSLVMDDEIESEAKKESLSPGKLKLTFEELERQRQENRKKQAEEEARKRLEEEKRAFEEARRQMVNEDEENQDTAKIFKGYRPGKLKLSFEEMERQRREDEKRKAEEEARRRIEEEKKAFAEARRNMVVDDDSPEMYKTISQEFLTPGKLEINFEELLKQKMEEEKRRTEEERKHKLEMEKQEFEQLRQEMGEEEEENETFGLSREYEELIKLKRSGSIQAKNLKSKFEKIGQLSEKEIQKKIEEERARRRAIDLEIKEREAENFHEEDDVDVRPARKSEAPFTHKVNMKARFEQMAKAREEEEQRRIEEQKLLRMQFEQREIDAALQKKREEEEEEEGSIMNGSTAEDEEQTRSGAPWFKKPLKNTSVVDSEPVRFTVKVTGEPKPEITWWFEGEILQDGEDYQYIERGETYCLYLPETFPEDGGEYMCKAVNNKGSAASTCILTIESKN [NEXN] | -0.858 | 0.21
MNFTPTHTPVCRKRTVVSKRGVAVSGPTKRRGMADSLESTPLPSPEDRLAKLHPSKELLEYYQKKMAECEAENEDLLKKLELYKEACEGQHKLECDLQQREEEIAELQKALSDMQVCLFQEREHVLRLYSENDRLRIRELEDKKKIQNLLALVGTDAGEVTYFCKEPPHKVTILQKTIQAVGECEQSESSAFKADPKISKRRPSRERKESSEHYQRDIQTLILQVEALQAQLGEQTKLSREQIEGLIEDRRIHLEEIQVQHQRNQNKIKELTKNLHHTQELLYESTKDFLQLRSENQNKEKSWMLEKDNLMSKIKQYRVQCKKKEDKIGKVLPVMHESHHAQSEYIKSLKDKLVQEKKLSNMYQEQCISLEEELARIREEEGMRREIFKDRTNKMGKRLQIMTKRYEALERRRILEVEGFKTDIKVLRQKLKDLEQMLYKATVNARANQDLALLCEVRDSNRRAHKIQGELKNLKSKVFGLENELRLC [CCDC77] | -0.0939 | 0.373
MNGFTPDEMSRGGDAAAAVAAVVAAAAAAASAGNGTGAGTGAEVPGAGAVSAAGPPGAAGPGPGQLCCLREDGERCGRAAGNASFSKRIQKSISQKKVKIELDKSARHLYICDYHKNLIQSVRNRRKRKGSDDDGGDSPVQDIDTPEVDLYQLQVNTLRRYKRHFKLPTRPGLNKAQLVEIVGCHFRSIPVNEKDTLTYFIYSVKNDKNKSDLKVDSGVH [SAP30] | 0.247 | 0.267
